Data on one substance can be found in PMC6416349.

Assay in all cases: SPR; Biacore 3000, 25 °C; fungal protein immobilised on a CM5 chip by amine coupling (300 RU Eno1 and Mp65, 360 RU Als3); RgpA 10-100 nM injected at 20 µl/min; 10 mM HEPES, 150 mM NaCl, 0.005% surfactant, pH 7.4; global fit, 1:1 Langmuir model with baseline drift
Background: SPR reads the build-up and loss of mass on a sensor chip optically.

Experiment [1] has as its target C. albicans cell wall mannoprotein 65 (Mp65) (C. albicans) (UniProt Q59XX2).
In experiment [2] the target is C. albicans enolase 1 (Eno1) (C. albicans) (UniProt P30575).
For experiment [3], the target named is C. albicans agglutinin-like sequence protein 3 (Als3), isolated from the hyphal cell wall (C. albicans) (UniProt Q59L12).
Chain of UniProt Q59L12 (Q59L12 18-1134): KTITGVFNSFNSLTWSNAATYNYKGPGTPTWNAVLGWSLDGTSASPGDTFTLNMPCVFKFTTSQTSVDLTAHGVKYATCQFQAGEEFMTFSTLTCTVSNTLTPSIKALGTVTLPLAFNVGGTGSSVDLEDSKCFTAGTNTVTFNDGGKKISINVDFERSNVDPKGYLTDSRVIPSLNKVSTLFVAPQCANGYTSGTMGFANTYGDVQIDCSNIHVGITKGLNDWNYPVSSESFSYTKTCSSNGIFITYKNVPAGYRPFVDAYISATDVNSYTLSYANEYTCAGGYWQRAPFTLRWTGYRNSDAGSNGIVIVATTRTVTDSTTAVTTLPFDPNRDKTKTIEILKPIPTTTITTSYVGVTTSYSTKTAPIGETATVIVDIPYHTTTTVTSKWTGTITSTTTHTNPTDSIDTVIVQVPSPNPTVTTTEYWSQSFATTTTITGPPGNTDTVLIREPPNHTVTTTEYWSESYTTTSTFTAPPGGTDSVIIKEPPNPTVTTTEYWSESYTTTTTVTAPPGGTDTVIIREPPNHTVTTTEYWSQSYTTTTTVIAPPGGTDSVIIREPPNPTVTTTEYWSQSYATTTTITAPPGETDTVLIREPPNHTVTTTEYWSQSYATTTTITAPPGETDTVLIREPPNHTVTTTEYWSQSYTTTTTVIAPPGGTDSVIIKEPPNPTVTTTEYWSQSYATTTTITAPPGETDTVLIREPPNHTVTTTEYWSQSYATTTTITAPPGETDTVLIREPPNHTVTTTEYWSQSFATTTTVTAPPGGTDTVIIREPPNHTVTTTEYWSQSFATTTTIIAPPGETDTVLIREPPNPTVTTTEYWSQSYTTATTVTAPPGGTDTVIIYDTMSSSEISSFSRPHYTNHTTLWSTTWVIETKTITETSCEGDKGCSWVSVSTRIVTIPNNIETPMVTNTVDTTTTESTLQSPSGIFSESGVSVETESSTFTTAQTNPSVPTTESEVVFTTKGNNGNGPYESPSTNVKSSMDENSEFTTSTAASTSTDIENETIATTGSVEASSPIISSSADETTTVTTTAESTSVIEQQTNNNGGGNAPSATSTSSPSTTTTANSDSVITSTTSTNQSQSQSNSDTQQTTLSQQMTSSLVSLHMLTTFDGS

Chain of UniProt Q59XX2 (Q59XX2 33-378): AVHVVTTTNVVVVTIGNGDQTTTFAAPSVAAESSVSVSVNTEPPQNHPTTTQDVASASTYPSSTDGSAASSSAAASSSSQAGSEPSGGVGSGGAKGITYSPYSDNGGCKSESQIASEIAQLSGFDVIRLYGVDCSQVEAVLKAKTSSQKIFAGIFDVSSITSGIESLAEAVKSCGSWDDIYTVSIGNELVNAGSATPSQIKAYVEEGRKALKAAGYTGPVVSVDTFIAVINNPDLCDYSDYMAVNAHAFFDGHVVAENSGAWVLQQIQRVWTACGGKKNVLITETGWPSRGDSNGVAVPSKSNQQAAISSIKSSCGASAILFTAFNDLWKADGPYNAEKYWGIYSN
Chain of UniProt P30575 (P30575 whole entry): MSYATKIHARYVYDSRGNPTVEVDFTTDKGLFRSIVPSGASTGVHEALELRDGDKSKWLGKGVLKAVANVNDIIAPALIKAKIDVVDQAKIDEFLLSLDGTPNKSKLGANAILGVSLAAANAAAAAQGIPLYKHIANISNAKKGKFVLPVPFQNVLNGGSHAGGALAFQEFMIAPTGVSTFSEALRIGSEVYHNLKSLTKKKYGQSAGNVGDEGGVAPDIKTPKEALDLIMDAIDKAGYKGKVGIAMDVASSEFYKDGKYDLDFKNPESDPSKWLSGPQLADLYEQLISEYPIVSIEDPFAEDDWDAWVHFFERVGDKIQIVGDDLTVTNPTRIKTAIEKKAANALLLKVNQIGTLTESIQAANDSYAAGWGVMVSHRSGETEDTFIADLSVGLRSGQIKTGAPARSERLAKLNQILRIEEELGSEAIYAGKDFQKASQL

In general, Kd refers to a measure of binding affinity in units of concentration. With “P. gingivalis gingipain RgpA (HRgpA) (from UniProt P28784 228-991) (enzyme)”, the equilibrium dissociation constant (Kd) in experiment [1] stood at 9.44 nM; in experiment [2] it was 2.97 nM; in experiment [3], 9.96 nM.
